For one assay, the target named is hGCGR (human, UniProt P47871). Put plainly: competition, [125I]-glucagon radioligand.
The next assay addresses T1, hGLP-1R (human, UniProt P43220).
T1 chain: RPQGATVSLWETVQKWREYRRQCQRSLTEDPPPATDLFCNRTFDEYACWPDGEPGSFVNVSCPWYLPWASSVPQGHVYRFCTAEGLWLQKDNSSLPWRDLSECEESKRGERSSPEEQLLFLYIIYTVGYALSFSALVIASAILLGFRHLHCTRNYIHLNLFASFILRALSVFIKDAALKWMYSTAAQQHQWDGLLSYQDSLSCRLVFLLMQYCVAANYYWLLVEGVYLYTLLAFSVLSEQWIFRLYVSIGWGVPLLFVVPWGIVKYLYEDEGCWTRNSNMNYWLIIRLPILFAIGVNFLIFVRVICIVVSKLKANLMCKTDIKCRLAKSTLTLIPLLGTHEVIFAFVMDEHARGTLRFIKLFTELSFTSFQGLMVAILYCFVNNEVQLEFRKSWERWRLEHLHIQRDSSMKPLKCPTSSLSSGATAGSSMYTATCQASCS
Nature of the assay: competition, [125I]-GLP-1 radioligand.

In another assay the target is T2, hGIPR (human, UniProt P48546).
T2 chain: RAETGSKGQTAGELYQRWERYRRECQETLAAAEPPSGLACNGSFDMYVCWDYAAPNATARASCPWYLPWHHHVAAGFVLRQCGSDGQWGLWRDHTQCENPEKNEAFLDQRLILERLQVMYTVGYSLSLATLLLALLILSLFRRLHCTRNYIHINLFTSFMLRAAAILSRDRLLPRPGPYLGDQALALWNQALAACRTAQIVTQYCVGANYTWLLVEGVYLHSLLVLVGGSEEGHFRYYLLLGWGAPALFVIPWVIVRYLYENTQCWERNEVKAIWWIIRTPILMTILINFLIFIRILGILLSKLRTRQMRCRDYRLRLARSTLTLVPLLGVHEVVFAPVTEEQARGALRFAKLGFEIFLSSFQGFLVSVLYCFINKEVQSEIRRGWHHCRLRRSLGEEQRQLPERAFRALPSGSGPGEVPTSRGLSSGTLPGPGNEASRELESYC
Nature of the assay: competition, [125I]-GIP radioligand.

Results on 1 molecule are retold here after patent US20260315572 (published 2026).

Starred links: 1 amine or outer side, 2 acyl side, 3 side chain; linkers in the order of their positions; H or OH if unused. Non-standard residues stand in square brackets, D forms with d. Groups on a side chain read outwards from the residue. No end group written: not given here. *: point of attachment. C20 diacid = O=C(O)CCCCCCCCCCCCCCCCCCC(=O)*; γGlu = O=C(O)[C@H](CCC(=O)[*:2])N[*:1]; AEEA = NCCOCCOCC(=O)O; Aib = CC(C)(N)C(=O)O

As usually defined, the Ki is a dissociation constant, usually derived from enzyme kinetics or from competition with a known ligand. A lower Ki goes with higher affinity.

Chain of hGCGR (P47871 26-477): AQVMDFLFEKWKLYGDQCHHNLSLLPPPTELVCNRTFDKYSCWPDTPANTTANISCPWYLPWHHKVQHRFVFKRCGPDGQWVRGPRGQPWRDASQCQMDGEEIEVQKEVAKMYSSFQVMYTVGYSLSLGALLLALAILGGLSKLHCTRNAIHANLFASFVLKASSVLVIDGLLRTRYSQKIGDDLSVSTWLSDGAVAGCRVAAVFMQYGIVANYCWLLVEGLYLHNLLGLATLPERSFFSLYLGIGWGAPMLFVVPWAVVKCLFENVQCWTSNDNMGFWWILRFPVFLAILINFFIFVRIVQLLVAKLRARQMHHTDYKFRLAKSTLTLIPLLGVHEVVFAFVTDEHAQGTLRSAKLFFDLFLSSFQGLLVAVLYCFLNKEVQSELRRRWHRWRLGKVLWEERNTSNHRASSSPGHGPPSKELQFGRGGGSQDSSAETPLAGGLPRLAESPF

B1: Example 1 (peptide)
chain: Y[Aib]EGTFTSDYSI[Aib]LDKIAQK([AEEA-AEEA-γGlu-C20 diacid])AFVQWLIAGGP-OH
modifications: N-terminus assumed
SMILES: CC[C@H](C)[C@H](NC(=O)[C@H](CC(C)C)NC(=O)[C@H](Cc1c[nH]c2ccccc12)NC(=O)[C@H](CCC(N)=O)NC(=O)[C@@H](NC(=O)[C@H](Cc1ccccc1)NC(=O)[C@H](C)NC(=O)[C@H](CCCCNC(=O)COCCOCCNC(=O)COCCOCCNC(=O)CC[C@H](NC(=O)CCCCCCCCCCCCCCCCCCC(=O)O)C(=O)O)NC(=O)[C@H](CCC(N)=O)NC(=O)[C@H](C)NC(=O)[C@@H](NC(=O)[C@H](CCCCN)NC(=O)[C@H](CC(=O)O)NC(=O)[C@H](CC(C)C)NC(=O)C(C)(C)NC(=O)[C@@H](NC(=O)[C@H](CO)NC(=O)[C@H](Cc1ccc(O)cc1)NC(=O)[C@H](CC(=O)O)NC(=O)[C@H](CO)NC(=O)[C@@H](NC(=O)[C@H](Cc1ccccc1)NC(=O)[C@@H](NC(=O)CNC(=O)[C@H](CCC(=O)O)NC(=O)C(C)(C)NC(=O)[C@@H](N)Cc1ccc(O)cc1)[C@@H](C)O)[C@@H](C)O)[C@@H](C)CC)[C@@H](C)CC)C(C)C)C(=O)N[C@@H](C)C(=O)NCC(=O)NCC(=O)N1CCC[C@H]1C(=O)O
Turning to B1, the Ki with hGCGR was greater than 0.24 µM; with hGLP-1R it was 0.0109 µM; with hGIPR, 0.00032 µM.
